The DeepSol protein solubility set

Test: soluble on expression in E. coli; label from the status in PepcDB or PDB records

Sequence | soluble on expression in E. coli
MGSDKIHHHHHHMKLEFTCGEEITIKEVNKLKLELMTSGKGDVEKELERLKKNKNKVHDIKTEETIDLLDRCAKLWLDDNYSKKHIETLAQITNQSFELVNYEFKSMMQMLLRENIQNTIKRELGEVDILDSWHKTNYGYEHRQPRGIIFHNISGNAFVVIPMSISMGLLSKNCNLVKVSKDEPYFAYAFYKSLCELDETVKDRLSVLYFDSSKTEIYDTIVKNSDGVIHWGGEYSSRIIGEMCAKYQKHMIMHGAKISFEVVDKCDDLNKVSEEIAKDIICWEQKACLSPRVVFLNDKIDVDEFSHCLSASLRKITEVIPKAYLSEWNSVKTIQDRQYCTLKYGMKNERRFKVYSSFNADYTVILSDGMPEKEDINKCFYRFIFVCPYSSKSDVVNYVSENLKDYLQTMGYSGNDEEFIEKMTLLGVSIVTKPGKMSLHEPGTSHDGIHNLKEFTFLVSRQI | not soluble
VAVRPVLAVGSYLPHAPWPWGVIDQAARVLLPASTTVRAAVSLPNASAQLVRASGVLPADGTRRAVLYLHGGAFLTCGANSHGRLVELLSKFADSPVLVVDYRLIPKHSIGMALDDCHDGYRWLRLLGYEPEQIVLAGDSAGGYLALALAQRLQEVGEEPAALVAISPLLQLAKEHKQAHPNIKTDAMFPARAFDALDALVASAAARNQVDGEPEELYEPLEHITPGLPRTLIHVSGSEVLLHDAQLAAAKLAAAGVPAEVRVWPGQVHDFQVAASMLPEAIRSLRQIGEYIREATG | not soluble
MPKRGLDVSSCEIFRFYKLITTKSLIEPVSMIVPRRSESYQEDIYPPTAAAQPSLTAHEWLSGMNRGKGGWEQAARLGNWSPGGPK | not soluble
MAFVTTAEVCDANQELIRSGQLRALQPIFQIYGRRQIFSGPVVTVKVFEDNGLIRQFIEEKGNGRVLVVDGGGSQRCAILGGNPVVQAQNNGWAGIVVNGCIRDVDEINGCDIGVRALASHPIKASKKGLGEQRVPVNIAGTRICDGEWLYADTDGILVSQIELSV | soluble
MSLDKDTVYAVVDIETTGTSVTDGDRIIQIGCVFVQHNQVINHFETDVNPLKEIPAAISRLTGITNKRVRHAPLFDDVAGTLYSLLTNTVFVAHNVNFDLPFINAELERVGYPALPIAAVDTVSLSQILLPTATSFRLRDLSRLFNIEHDNPHSADSDASATAELFIFLFRRLRALPMVTLQRMIDLQADLPLQTTTLFRVAQQLNEEGHHHHHH | not soluble
SDYEKFLLFGDSITEFAFNTRPIEDGKDQYALGAALVNEYTRKMDILQRGFKGYTSRWALKILPEILKHESNIVMATIFLGANDACSAGPQSVPLPEFIDNIRQMVSLMKSYHIRPIIIGPGLVDREKWEKEKSEEIALGYFRTNENFAIYSDALAKLANEEKVPFVALNKAFQQEGGDAWQQLLTDGLHFSGKGYKIFHDELLKVIETFYPQYHPKNMQYKLKDWRDVLDDGSNIMS | soluble
MNRIGFIGAGNMGTAMIRGLAQANLVKREEIIVGGRNLEKLKPLEAEFTGLQITTDTEKLVEQADIIILAVKPYTIPEILTSVKEKLTPDKIIISVAAGVTIQDLEELTSAKTKIVRVMPNTPALVGEAMSSVSPNTNVTSEELKEVTAIFTSFGEAEVVSENLMDAVIGVSGSSPAYVYMFIEALADGAVLSGMPRDKAYKFAAQAVLGAAKTVLETGEHPGKLKDMVTSPGGTTIEAVKSLENDGFRSAVINAVQAAAKKNSSMLEHHHHHH | soluble
MDSKAKQMILSALCKHFSLDPEPFVGGAGESDIKTLYSNVLKASGKEVSAQNNDVLKWLDFAEGFSSDSKDWFSALEKLNLELATKSVLLGNGLTPSAADVAVFSALHSSVLGLSDSDKEKVPHVIRWVNYIQNKEELSTLFAPIPVKLPEFSFEVPKPAIKVETNSNSKKAAEGVKPVDKPDVQPQLGTKKTEPEEPKKNAAKEKDAKKEKKKPAEPEPAKKEAELSVSLLNIQVGLIRKAWKHPSADSLLVEEIDVGEDKVRQVVSGLAKFCSPEDLTNRLVALITNVKPGKLRDVMSQGLVLCASSEDHSVVEPLLPPAGAKPGERVSFSGIEGKPEDVLNPKKKQLEKITPGLYTDENGVATYKGIQFMTSAGPCTSSIPKATIK | soluble
